In patent US20030113325A1 (CHILDREN S MEDICAL CENTER, published 2003) one finds binding result and Kd data, which are given here for two molecules.

In one test the target is T1, AP (UniProt P05187 23-511, limits assumed).
T1 construct: Control in the coimmunoprecipitation; also called alkaline phosphatase; AP alone
Briefly: coimmunoprecipitation of GST or GST-NgR with AP or AP-OMgp. The source says:
(§1) We next took advantage of AP-OMgp binding to identify cell surface OMgp-binding proteins by expression cloning (He & Tessier-Lavigne, 1997; Flanagan and Cheng, 2000; Fournier et al., 2001). Pools of a complementary DNA expression library from adult human brain, representing approximately 250,000 independent clones, were transfected into COS-7 cells and screened for the presence of cells that bound AP-OMgp. […] After screening several rounds of subpools, we isolated two cDNAs that encoded the OMgp-binding proteins. […] We next performed coimmunoprecipitation experiments by incubating GST or a GST-NgR fusion protein containing the entire extracellular domain of NgR (GST-NgR) with AP or AP-OMgp.

In test [1] the target is T2, Nogo-66 receptor (NgR), full-length, expressed on transfected cells (human, UniProt Q9BZR6 27-447).
T2 construct: whole, on cells; The species of the NgR on the CHO cells is not restated; also called Nogo receptor
T2 sequence (looked up): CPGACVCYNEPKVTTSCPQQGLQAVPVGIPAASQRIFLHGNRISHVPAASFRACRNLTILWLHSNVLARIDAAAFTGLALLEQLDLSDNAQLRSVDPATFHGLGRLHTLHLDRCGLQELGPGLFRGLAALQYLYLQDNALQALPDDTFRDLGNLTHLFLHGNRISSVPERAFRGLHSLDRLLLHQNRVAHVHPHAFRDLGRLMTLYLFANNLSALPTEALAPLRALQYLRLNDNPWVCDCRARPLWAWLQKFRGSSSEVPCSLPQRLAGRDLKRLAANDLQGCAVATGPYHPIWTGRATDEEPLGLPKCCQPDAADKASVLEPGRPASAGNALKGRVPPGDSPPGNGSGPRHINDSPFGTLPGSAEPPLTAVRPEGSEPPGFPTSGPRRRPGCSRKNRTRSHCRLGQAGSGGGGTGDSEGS
Briefly: saturation analysis of AP-OMgp binding to N2A cells transfected with NgR cDNA, bound AP activity.
Excerpt: as §1
Cell surface binding and expression cloning were performed as described previously (He and Tessier-Lavigne, 1997). To detect AP-OMgp binding, cultures were washed with binding buffer (Hanks balanced salt solution containing 20 mM Hepes, pH 7.5, and 1 mg/ml bovine serum albumin (BSA)). The plates were then incubated with AP-OMgp-containing binding buffer for 75 min at room temperature. After extensive washing and heat inactivation, bound AP fusion proteins were detected by AP staining using NBT and BCIP as substrate. For saturation analysis, we disrupted cells and detected bound AP fusion proteins using […] as substrate.

Broadly, the Kd is a measure of binding affinity in units of concentration. A high value points to weaker binding.

T1 sequence (P05187 23-511 limits assumed): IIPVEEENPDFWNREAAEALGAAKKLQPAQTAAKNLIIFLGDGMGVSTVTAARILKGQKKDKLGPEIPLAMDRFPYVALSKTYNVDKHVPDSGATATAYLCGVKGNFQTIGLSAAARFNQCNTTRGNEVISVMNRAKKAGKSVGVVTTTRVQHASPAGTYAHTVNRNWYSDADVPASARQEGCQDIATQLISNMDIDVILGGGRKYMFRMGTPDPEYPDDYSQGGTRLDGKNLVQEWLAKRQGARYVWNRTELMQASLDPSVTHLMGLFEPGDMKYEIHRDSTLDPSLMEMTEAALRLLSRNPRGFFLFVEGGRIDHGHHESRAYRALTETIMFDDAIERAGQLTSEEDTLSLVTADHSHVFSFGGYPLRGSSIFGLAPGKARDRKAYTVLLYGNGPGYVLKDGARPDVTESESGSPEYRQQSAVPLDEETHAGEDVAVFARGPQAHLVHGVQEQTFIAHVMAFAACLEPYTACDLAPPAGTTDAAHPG

B1: GST-NgR fusion protein containing the entire extracellular domain of NgR (receptor, UniProt Q9BZR6 27-447, looked up)
chain: T2 sequence (looked up)
notes: extracellular domain; not shown: glutathione S-transferase (GST) fusion partner
Turning to B1, in the test with AP, the binding result is “no binding”.

B2: AP-OMgp fusion protein (ligand, mouse, UniProt Q63912 25-417, looked up)
chain: ICPLQCTCTERHRHVDCSGRNLTTLPPGLQENIIHLNLSYNHFTDLHNQLTPYTNLRTLDISNNRLESLPAQLPRSLWNMSAANNNIKLLDKSDTAYQWNLKYLDVSKNMLEKVVLIKNTLRSLEVLNLSSNKLWTVPTNMPSKLHIVDLSNNSLTQILPGTLINLTNLTHLYLHNNKFTFIPEQSFDQLLQLQEITLHNNRWSCDHKQNITYLLKWVMETKAHVIGTPCSKQVSSLKEQSMYPTPPGFTSSLFTMSEMQTVDTINSLSMVTQPKVTKTPKQYRGKETTFGVTLSKDTTFSSTDRAVVAYPEDTPTEMTNSHEAAAATLTIHLQDGMSSNASLTSATKSPPSPVTLSIARGMPNNFSEMPRQSTTLNLRREETTANGNTRPPS
notes: Secreted from COS-7 cells and purified on nickel-agarose; about 180 kDa; The order of the parts follows the name AP-OMgp; not shown: alkaline phosphatase (AP) reporter of expression vector AP-5 (Flanagan and Cheng, 2000)
In test [1], B2 had a Kd of 5 nM.
